The text below walks through data of patent US20230279079A1 (published 2023).

Numbering of substitutions follows the chain as printed.

The labels stand for the following.
B1: FI 4A (antibody, V domains shown)
VH: EVQLVESGGGLVKPGGSLRLSCAASGFTFSRFSMNWVRQAPGKGLEWVSSISSSGSYIYFADSVKGRFTISRDNAKNSLYLQMNSLRAEDTAIYYCATYLFGDSHTYWGQGTLVTVSS
VL: QSVLTQPHSVSESPGKTVTISCTGSSGSIASNYVQWYQQRPGSAPTTVIYEDNQRPSGVPDRFSGSIDSSSNSASLTISGLKTEDEADYYCQSYDSSNLHWVFGGGTKLTVL
B2: FM 7B (antibody, V domains shown)
VH: EVQLVQSGAEVKKPGASVKVSCKASGYTFTSYAMHWVRQAPGQRLEWMGWINTGNGNTKYSQKFQGRVTITRDTSASTAYMELSSLRSEDTAVYYCARDPTYCSSTSCYPFSWFDPWGQGTLVTVSS
VL: NFMLTQPPSVSVAPGQTARITCGGNNIGSKSVHWYQQKPGQAPVLVVYDDSDRPSGIPERFSGSNSGNTATLTISRVEAGDEADYYCQVWDSTGDHSWVFGGGTKLTVL
B3: FD 11A (antibody, V domains shown)
VH: EVQLVESGGGVVQPGRSLRLSCAASGFTFSSYGMHWVRQAPGKGLEWVAVIWYDGSNKYYADSVKGRFTISRDNSKNTLYLQMNSLRAEDTAVYYCAKGPDILTGYYNYYYYGMDVWGQGTMVTVSS
VL: QSVLTQPPSVSGAPGQRVTISCTGSSSNIGAGYDVHWYQQLPGTAPKLLIYGNSNRPSGVPDRFSGSKSGTSASLAITGLQAEDEADYYCQSYDSSLSGFYVVFGGGTKLTVL
B4: FI 1C (antibody, V domains shown)
VH: EVQLVESGGGLVKPGGSLRLSCAASGFTFSDYYMSWIRQAPGKGLEWVSYISSSGSTIYYADSVKGRFTISRDNAKNSLYLQMNSLRAEDTAVYYCARRSNRFLIAFDIWGQGTMVTVSS
VL: QSALTQPASVSGSPGQTITISCTGTSSDVGGYNYVSWYQQHPGKAPKLMIYEVSNRPSGVSNRFSGSKSGNTASLTISGLQAEDEADYYCSSYTSSSTLVVFGGGTKLTVP
B5: FN 12A (antibody, V domains shown)
VH: QVQLVQSGAEVKKPGSSVKVSCKASGGTFSSYAISWVRQAPGQGLEWMGRIIPILGIANYAQKFQGRVTITADKSTSTAYMELSSLRSEDTAVYYCARSGCSSTSCPSNLYYYYYGMDVWGQGTTVTVSS
VL: QSVLTQPPSVSAAPGQKVTISCSGSSSNIGNNYVSWYQQLPGTAPKLLIYDNNKRPSGIPDRFSGSKSGTSATLGITGLQTGDEADYYCGTWDSSLSALVFGGGTKLTVL
B6: FI 3A (antibody, V domains shown)
VH: EVQLLESGGGLIQPGGSLRLSCAASGFTVSSNYMSWVRQAPGKGLEWVSVIYSGGSTYYADSVKGRFTISRDNSKNTLYLQMNSLRAEDTAVYYCARDHVRPGMNIWGQGTMVTVSS
VL: not shown
B7: EZ 7A (antibody, V domains shown)
VH: EVQLVESGAEVKKPGESLKISCKGSGYSFTSYWIGWVRQMPGKGLEWMGIIYPGDSDTRYSPSFQGQVTISADKSISTAYLQWSSLKASDTAMYYCARGWVYRGFPYYGMDVWGQGTMVTVSS
VL: QSALTQPRSVSGSPGQSVTISCTGTSSDVGGYNYVSWYQQHPGKAPKLMIYDVSKRPSGVPDRFSGSKSGNTASLTISGLQAEDEADYYCCSYAGSYTLVFGGGTKLTVL
B8: FD 5D (antibody, V domains shown)
VH: EVQLVESGGGLVQPGGSLRLSCAASGFTFSSYSMNWVRQAPGKGLEWVSYISSSSSTIYYADPVKGRFTISRDNAKNSLYLQMNSLRAEDTAVYYCASPGGITAAGTSVLFGYYGMDVWGQGTMVTVSS
VL: not shown
B9: FJ 10B (antibody, V domains shown)
VH: QVQLVQSGAEVKKPGESLRISCKGSGYSFTSYWISWVRQMPGKGLEWMGRIDPSDSYTNYSPSFQGHVTISADKSISTAYLQWSSLKASDTAMYYCARLDPRYGPDYYGMDVWGQGTTVTVSS
VL: AIRMTQSPSSLSASVGDRVTITCRASQSISSYLNWYQQKPGKAPKLLIHAASSLQSGVPSRFSGSGSGTDFTLTMSSLQPEDFATYYCQQSYSTPLTFGGGTKVEIR
B10: FD 10A (antibody, V domains shown)
VH: EVQLVESGGGLVQPGGSLRLSCAASGFTFSSYWMHWVRQAPGKGLVWVSRINSDGSSTSYADSVKGRFTISRDNAKNTLYLQMNSLRAEDTAVYYCANMAFDIWGQGTMVTVSS
VL: not shown
B11: FD 8B (antibody, V domains shown)
VH: EVQLLESGAEVKKPGASVKVSCKVSGYTLTELSMHWVRQAPGKGLEWMGGFDPEDGETIYAQKFQGRVTMTEDTSTDTAYMELSSLRSEDTAVYYCATAAAINCSSTSCYYYYYYYGMDVWGQGTTVTVSS
VL: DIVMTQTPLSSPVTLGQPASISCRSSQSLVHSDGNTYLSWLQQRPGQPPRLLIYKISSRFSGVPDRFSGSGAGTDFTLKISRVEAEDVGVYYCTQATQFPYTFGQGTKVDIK
B12: FB 1E (antibody, V domains shown)
VH: EVQLVESGAEVKKPGESLKISCQGSGYRFNSYWIAWVRQMPGKGLEWMGSIFPTDSDIRYNPSFQGQVTISADKSISIAYLQWSSLKASDTAIYYCARHWASMVRGVIRASHYYGMDVWGQGTTVTVSS
VL: QSVLTQPPSASGSPGQSVTISCSGASSDIGDYNYVSWYQQLPGKAPKLLIYEVTKRPSGVPDRFSGSKSGNTASLTVSGLQADDEADYYCSSYAFGGSDIRVFGGGTKLAVL
B13: FB 9D (antibody, V domains shown)
VH: B12 VH with E1Q, I58V, I78F
VL: B12 VL with S2P, D31K, I100T, A110T
B14: FG 12C (antibody, V domains shown)
VH: EVQLVESGGGLVQPGRSLRLSCAASGFTFDDYAMHWVRQAPGKGLEWVSGISWNSGSIGYADSVKGRFTISRDNAKNSLYLQMNSLRAEDTALYYCAKDMRVHDYGDYYFDYWGQGTLVTVSS
VL: SYELTQPPSVSVAPGKTARITCGGNNIGSKSVHWYQQKPGQAPVLVIYYDSDRPSGIPERFSGSNSGNTATLTISRVEAGDEADYYCQVWDSSSDHPVFGGGTKLTVL
B15: FN 8C (antibody, V domains shown)
VH: QVQLVESGGGVVQPGRSLRLSCAASGFTFSSYGMHWVRQAPGKGLEWVAVISYDGSNKYYADTVKGRFTISRDNSKNTLYLQMNSLRAEDTAVYYCARERTYYDILTGYRHYYGMDVWGQGTTVTVSS
VL: B14 VL with K16Q, I47V, Y49D, P97W
B16: FN 2C (antibody, V domains shown)
VH: EVQLLESGGGVVQPGRSLRLSCAASGFNFNNYGMHWVRQAPGKGLEWVATISYEGSKKFYVDSVKGRFTISKDNSKNTLYLQMNSLRVDDTAFYYCAKRREIFWLGEPPLSDAFDFWGQGTMVTVSS
VL: QSVLTQPPSVSGAPGQRVTISCTGSGSNIGAGYDVHWYQFLPGTAPQLLIYGNNNRPSGVPDRFSGSKSGTSASLAITGLQAEDEADYYCQSYDSSLSGSVFGGGTKLTVL
B17: FJ 1C (antibody, V domains shown)
VH: QVQLQESGPGLVKPSETLSLTCTVSGYSISSGYYWGWIRQPPGKGLEWIGSIYHSGSTYYNPSLKSRVTISVDTSKNQFSLKLSSVTAADTAVYYCARDKALLWFGELFTNLFDYWGQGTLVTVSS
VL: QSALTQPASVSGSPGQSITISCTGTSSDVGGYNYVSWYQQHPGKAPKLMIYEVSNRPSGVSNRFSGSKSGNTASLTISGLQAEDEANYYCSSYTSSSTLVFGGGTKLTVL
B18: FD 7D (antibody, V domains shown)
VH: EVQLVESGAEVKKPGESLRISCKGSGYSFTSYWISWVRQMPGKGLEWMGRIDPSDSYTNYSPSFQGHVTISADKSISTAYLQWSSLKASDTAMYYCARHSDCSSTSCYFVDAFDIWGQGTMVTVSS
VL: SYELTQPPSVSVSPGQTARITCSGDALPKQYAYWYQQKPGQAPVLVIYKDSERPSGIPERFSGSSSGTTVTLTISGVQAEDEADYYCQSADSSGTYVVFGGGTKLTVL
B19: FD 1E (antibody, V domains shown)
VH: EVQLLESGGGLVKPGGSLRLSCAASGFTFSSYSMNWVRQAPGKGLEWVSSISSSSSYIYYADSVKGRFTISRDNAKNSLYLQMNSLRAEDTAVYYCASLAAAGPETYYYYGMDVWGQGTMVTVSS
VL: not shown
B20: FD 11E (antibody, V domains shown)
VH: B19 VH with L5V
VL: not shown
B21: FD 7C (antibody, V domains shown)
VH: QLQLQESGPGLVKPSETLSLTCTVSGGSISSYYWSWIRQPPGKGLEWIGYIYYSGSTNYNPSLKSRVTISVDTSKNQFSLKLSSVTAADTAVYYCARDYRFGELFGRFAWFDPWGQGTLVTVSS
VL: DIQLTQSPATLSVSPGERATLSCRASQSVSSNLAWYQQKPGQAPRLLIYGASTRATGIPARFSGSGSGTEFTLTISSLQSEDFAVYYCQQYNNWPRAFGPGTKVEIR
B22: FD 11D (antibody, V domains shown)
VH: EVQLVESGGGVVQPGRSLRLSCAASGFTFSSYGMHWVRQAPGKGLEWVAVISYDGSNKYYADSVKGRFTISRDNSKNTLYLQMNSLRAEDTAVYYCAKEGAGSGWYRHHKPGYYFDYWGQGTLVTVSS
VL: not shown
B23: FD 11C (antibody, V domains shown)
VH: EVQLLESGPGLVKPSETLSLTCTVSGGSISSSSYYWGWIRQPPGKGLEWIGSIYYSGSTYYNPSLKSRVTISVDTSKNQFSLKLSSVTAADTAVYYCAREYYYGSETKKYYYYYGMDVWGQGTTVTVSS
VL: not shown

The target in the first assay is T1, SARS-CoV-2 spike receptor binding domain (RBD) (SARS-CoV-2, UniProt P0DTC2 319-541). Description: flow.
For the molecule B1, the Kd stood at 7.9 nM.

The molecule B2 came in with a Kd of 0.64 nM.

B3: binding was put at a Kd of 0.75 nM.

In turn, B4 returned a Kd of 12.2 nM.

Consider B5, for which the Kd was 1.12 nM.

The target of the next assay is T1, SARS-CoV-2 spike receptor binding …. The assay can be described thus: flow. This is another data set of the same source.
Take B6: the Kd is 3.83 nM.

In turn, B7 returned a Kd of 11.4 nM.

For the molecule B8, binding was characterised by a dissociation constant (Kd) of 0.93 nM.

B9 returned a Kd of 3.73 nM.

The next assay concerns the target SARS-CoV-2 spike extracellular domain (SARS-CoV-2, UniProt P0DTC2 14-1213). Description: ELISA.
In the case of B1, the affinity, expressed as Kd, was 0.41 nM.

On to B2, for which the Kd was 0.51 nM.

B3 registered a Kd of 0.4 nM.

B10 registered a Kd of 0.42 nM.

Regarding B6, the Kd amounted to 6.61 nM.

Molecule B4 displayed a Kd of 1.18 nM.

As to B11, binding was put at a Kd of 10.4 nM.

Take B7: the Kd is 1.08 nM.

In the case of B12, binding was characterised by a dissociation constant (Kd) of 0.41 nM.

Regarding B13, the Kd came out at 0.29 nM.

Consider B8, for which the Kd came out at 0.58 nM.

The molecule B14 gave a Kd of 2.54 nM.

On to B15, for which the Kd was determined as 63.9 nM.

B16 showed a Kd of 0.3 nM.

In turn, B17 registered a Kd of 0.57 nM.

In the case of B18, the Kd was determined as 64 nM.

B19 gave a Kd of 20.5 nM.

Turning to B20, binding was put at a Kd of 19.5 nM.

The molecule B5 returned a Kd of 0.38 nM.

The molecule B21 yielded a Kd of 0.18 nM.

Take B22: binding was characterised by a dissociation constant (Kd) of 3.54 nM.

B23 yielded a Kd of 0.98 nM.

In turn, B9 gave a Kd of 7.57 nM.
